Data taken from US20240392000A1 (BIOGRAPH 55, published 2024).
Numbering of substitutions follows the chain as printed.

B1: BS1M-4 (BS1 anti-CD38 arm CDR-H2 variant RVIPHLGTAN) (bispecific antibody, human IgG1, kappa)
heavy: not shown
VH: QVQLVQSGAEVKKPGSSVKVSCKASGGTFSSYAFSWVRQAPGQGLEWMGRVIPHLGTANSAQKFQGRVTITADKSTSTAYMELSSLRSEDTAVYYCARDDIAALGPFDYWGQGTLVTVSS
light: not shown
notes: BS1 format
B2: BS1M-7 (BS1 anti-CD38 arm CDR-H2 variant RVIPQLGTAN) (bispecific antibody, human IgG1, kappa)
heavy: not shown
VH: B1 VH with H54Q
light: not shown
notes: BS1 format

Target: CD38 antigen (in solution, Octet analyte) (human, UniProt P28907 43-300, limits assumed)
Assay: BLI (Octet Red), antibody captured on AHC sensor, antigen in solution, 1:1 model

| Binder | Kd |
| --- | --- |
| B1 | 94.4 nM |
| B2 | 60.5 nM |
